For one data set, the system named is Lrp (Escherichia coli). The experiment in a line: EMSA.
Data set [1] has as its system Lrp;MBP-RctB (Escherichia coli;Vibrio cholerae). Description: EMSA. The conditions noted are these: scale: fold higher RctB affinity than to naked crtS.

pKd: −log10 of the molar value.

The pKd is −log10 of the Kd, conventionally taken in molar units.

In the data set with Lrp (Escherichia coli), “crtS (153 bp with ~100 bp lambda flanks)” had a pKd of 8.26. This substance also displayed a binding signal in data set [1] of 10.
